From the RNAGym collection of RNA variant scans (doi:10.7554/elife.80360) come the findings set out here.

The labels stand for the following.
B1: CPEB3 Ribozyme (parent)
chain: GGGGGCCACAGCAGAAGCGUUCACGUCGCGGCCCCUGUCAGAUUCUGGUGAAUCUGCGAAUUCUGCUGU

The variants in this series derive from B1. The experiment in a line: self-cleavage, relative activity (ratio to wild type); higher = more cleavage; co-transcriptional.
In the case of GGGGGCCGCAGCAGAAGCGUUCACGUCGCGGCCCUUGUCAGAUUCUGGUGAAUCUGCGAAUUCUGCUGU [A8G C35U], the self-cleavage came out at 0.808. As to GGGGGCCGCAGCAGACGCGUUCACGUCGCGGCCCCUGUCAGAUUCUGGUGAAUCUGCGAAUUCUGCUGU [A8G A16C], the self-cleavage amounted to 0.0896. With GGGGGCCGCAGCAGAGGCGUUCACGUCGCGGCCCCUGUCAGAUUCUGGUGAAUCUGCGAAUUCUGCUGU [A8G A16G] the figure was 0.458; with GGGGGCCGCAGCAGAAGCGUUCACGUGGCGGCCCCUGUCAGAUUCUGGUGAAUCUGCGAAUUCUGCUGU [A8G C27G], 0.0649. Next, GGGGGCCGCAGCAGAAGCGUUCACGUCGCGGCGCCUGUCAGAUUCUGGUGAAUCUGCGAAUUCUGCUGU [A8G C33G]: 0.488; GGGGGCCGCAGCAGAAGCGUUCACGUCGCGGUCCCUGUCAGAUUCUGGUGAAUCUGCGAAUUCUGCUGU [A8G C32U]: 0.877; GGGGGCCGCAGCAGAAGCGUUCACGUCGCGGGCCCUGUCAGAUUCUGGUGAAUCUGCGAAUUCUGCUGU [A8G C32G]: 0.517. With GGGGGCCGCCGCAGAAGCGUUCACGUCGCGGCCCCUGUCAGAUUCUGGUGAAUCUGCGAAUUCUGCUGU [A8G A10C] the figure was 0.666. On to GGGGGCCGCGGCAGAAGCGUUCACGUCGCGGCCCCUGUCAGAUUCUGGUGAAUCUGCGAAUUCUGCUGU [A8G A10G], for which the self-cleavage was 0.122.

Take GGGGGCCGCAGCAGAAGCGUUCACGUCGCGGCCCCUGUCAGAUUCUGGUGAAUCUGUGAAUUCUGCUGU [A8G C57U]: the self-cleavage was 0.303. For GGGGGCCGCAGCAGAAGCGUUCACGUCGCGGCCCCUGUCAGAUUGUGGUGAAUCUGCGAAUUCUGCUGU [A8G C45G], the self-cleavage came to 0.801. For the variant GGGGGCCGCAGCAGAAGCGUUCACGUCGCGGCCCCUGUCAGAUUCUGGUAAAUCUGCGAAUUCUGCUGU [A8G G50A], the self-cleavage was 0.868.

For GGGGGCCGCAGCAGAAGCGUUCACGUCGCGGCCCCUGUCAGAUUCUGGUUAAUCUGCGAAUUCUGCUGU [A8G G50U], the self-cleavage amounted to 0.877. Consider GGGGGCCGCAGCCGAAGCGUUCACGUCGCGGCCCCUGUCAGAUUCUGGUGAAUCUGCGAAUUCUGCUGU [A8G A13C], for which the self-cleavage turned out to be 0.126. Turning to GGGGGCCGCAGCGGAAGCGUUCACGUCGCGGCCCCUGUCAGAUUCUGGUGAAUCUGCGAAUUCUGCUGU [A8G A13G], the self-cleavage was determined as 0.192. With GGGGGCCGAAGCAGAAGCGUUCACGUCGCGGCCCCUGUCAGAUUCUGGUGAAUCUGCGAAUUCUGCUGU [A8G C9A] the figure was 0.994.

GGGGGCCGCAGCAGAAGCGUUCCCGUCGCGGCCCCUGUCAGAUUCUGGUGAAUCUGCGAAUUCUGCUGU [A8G A23C]: the self-cleavage stood at 0.751. With GGGGGCCGCAGCAGAAGCGAUCACGUCGCGGCCCCUGUCAGAUUCUGGUGAAUCUGCGAAUUCUGCUGU [A8G U20A] the figure was 0.0589; with GGGGGCCCCAGCAGAAGCGUUCACGUCGCGGCCCCUGUCAGAUUCUGGUGAAUCUGCGAAUUCAGCUGU [A8C U64A], 0.947; with GGGGGCCCCAGCAGAAGCGUUCACGUCGCGGCCCCUGUCAGAUUCUGGUGAAUCUGCGAAUUCUGCGGU [A8C U67G], 0.975. With GGGGGCCCCAGCAGAAGCGUUCACGUCGCGGCCCCUGUCAGAUUCUGGUGAAUCUGCGAAUUCUGCCGU [A8C U67C] the figure was 1; with GGGGGCCGCAGCAGAAGCGUUCACGUCGCGGCCCCUGUCAGAUUCUAGUGAAUCUGCGAAUUCUGCUGU [A8G G47A], 1; with GGGGGCCGCAGCAGAAGCAUUCACGUCGCGGCCCCUGUCAGAUUCUGGUGAAUCUGCGAAUUCUGCUGU [A8G G19A], 0.0612. As for GGGGGCCGCAGCAGAAGCGUUCACGUCGCGGCCCCUGUCAGAUUCUGGUGAAUCUGCGAAUUCUCCUGU [A8G G65C], the self-cleavage was 0.424. Next, GGGGGCCGCAGCAGAAGCGUUCACGUCGCGGCCCCUGUCAGAUUCUGGUGAAUCUGCGAAUUCUUCUGU [A8G G65U]: 0.223; GGGGGCCGCAGCAGAAGCGUUCACGUCGCGGCCUCUGUCAGAUUCUGGUGAAUCUGCGAAUUCUGCUGU [A8G C34U]: 0.952; GGGGGCCGCAGCAGAAGCGUUCACGUCGCGGCCACUGUCAGAUUCUGGUGAAUCUGCGAAUUCUGCUGU [A8G C34A]: 0.734. Next, GGGGGCCGCAGCAGAAGCGUUCACGUCGCGGCCCCUGUCAGAUUCUGGUGAAUCUGCGACUUCUGCUGU [A8G A60C]: 0.143; GGGGGCCGCAGCAGAAGCGUUCACGUCGCGGCCCCUGUCAGAUUCUGGUGUAUCUGCGAAUUCUGCUGU [A8G A51U]: 0.772.

As for GGGGGCCGCAGCAGAAGCGUUCACGUCGCGGCCCCUGUCAGAUUCUGGUGGAUCUGCGAAUUCUGCUGU [A8G A51G], the self-cleavage came out at 0.901. GGGGGCCGCAGCAGAAGCGUUCACGUCGCGGCCCCUGUUAGAUUCUGGUGAAUCUGCGAAUUCUGCUGU [A8G C39U]: the self-cleavage was found to be 0.448.

As to GGGGGCCGCAGCAGGAGCGUUCACGUCGCGGCCCCUGUCAGAUUCUGGUGAAUCUGCGAAUUCUGCUGU [A8G A15G], the self-cleavage was found to be 0.777. With GGGGGCCGCAGCAGAAGCGUUCACGUCGCGGCCCCUAUCAGAUUCUGGUGAAUCUGCGAAUUCUGCUGU [A8G G37A] the figure was 0.128; with GGGGGCCGCAGCAGAAGCGUUCACGUCGCGGCCCCUUUCAGAUUCUGGUGAAUCUGCGAAUUCUGCUGU [A8G G37U], 0.134. Next, GGGGGCCGCAGCAGAAGCGUUCACGUCGCGCCCCCUGUCAGAUUCUGGUGAAUCUGCGAAUUCUGCUGU [A8G G31C]: 0.0995. Turning to GGGGGCCGCAGCAGAAGCGUUCACGUCGCGGCCCCUGUCAGAUUCUGCUGAAUCUGCGAAUUCUGCUGU [A8G G48C], the self-cleavage is 0.954.

Consider GGGGGCCCCAGCAGAAGCGUUCACGUCGCGGCCCCUGUCAGAUUCUGGUGAAUCUGCGAAUUCUGCUGC [A8C U69C], for which the self-cleavage was determined as 1.07. With GGGGGCCGCAGCAGAAGCGUUCACGUCGCGGCCCCUGUCAGAUUCUGGUGAAUCUGCAAAUUCUGCUGU [A8G G58A] the figure was 0.867; with GGGGGCCGCAGCAGAAGCGUUCACGUCGCGGCCCCUGUCAGAUUCUGGUGAAUCUGCUAAUUCUGCUGU [A8G G58U], 0.92.
